Experimental data reported in paper PMC9482650, “Quantitative fragmentomics allow affinity mapping of interactomes” (Nature Communications, 2022).

What was measured:
Assay in all cases: holdup assay
Set-up in all cases: key: below the threshold = too weak to quantify, mostly under pKd 3.1 to 4
Settings in all cases: plain residues with an end cap or a label only (N-terminal biotin on a linker: ttds)
GRIP2_5, Q9C0E4 = target: GRIP2_5, Q9C0E4
DLG3_2, Q92796 = target: T1, DLG3_2, Q92796
T1 sequence (Q92796 221-321, limits assumed, looked up): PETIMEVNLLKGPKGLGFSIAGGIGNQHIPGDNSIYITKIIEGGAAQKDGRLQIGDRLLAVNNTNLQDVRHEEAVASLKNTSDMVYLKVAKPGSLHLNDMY

MPP7, Q5T2T1 = target: T2, MPP7, Q5T2T1
T2 sequence (Q5T2T1 134-230, limits assumed, looked up): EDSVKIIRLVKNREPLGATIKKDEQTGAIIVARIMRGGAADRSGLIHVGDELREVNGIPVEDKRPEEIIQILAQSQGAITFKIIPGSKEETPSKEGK

LNX2_2, Q8N448 = target: T3, LNX2_2, Q8N448
T3 sequence (Q8N448 334-432, limits assumed, looked up): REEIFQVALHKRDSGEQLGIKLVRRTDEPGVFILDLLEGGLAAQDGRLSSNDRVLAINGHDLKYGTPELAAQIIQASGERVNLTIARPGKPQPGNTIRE

LIN7C, Q9NUP9 = target: T4, LIN7C, Q9NUP9
T4 sequence (Q9NUP9 88-185, limits assumed, looked up): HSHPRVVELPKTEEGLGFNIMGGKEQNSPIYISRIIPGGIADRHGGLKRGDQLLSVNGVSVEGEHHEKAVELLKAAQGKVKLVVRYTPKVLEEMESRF

LDB3, O75112 = target: LDB3, O75112
LDB3, O75112, sequence (O75112 1-94): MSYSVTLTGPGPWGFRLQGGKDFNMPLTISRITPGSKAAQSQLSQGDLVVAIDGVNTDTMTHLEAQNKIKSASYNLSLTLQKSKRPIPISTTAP

Inadl_9, Q8NI35 = target: Inadl_9, Q8NI35
Inadl_9, Q8NI35, sequence (Q8NI35 1530-1615): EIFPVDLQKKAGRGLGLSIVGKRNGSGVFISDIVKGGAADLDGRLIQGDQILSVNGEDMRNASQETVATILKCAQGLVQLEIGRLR

NHERF4_1, Q86UT5-2 = target: NHERF4_1, Q86UT5-2
NHERF4_1, Q86UT5-2, sequence (Q86UT5 other isoform, or with tags, fused parts or gaps): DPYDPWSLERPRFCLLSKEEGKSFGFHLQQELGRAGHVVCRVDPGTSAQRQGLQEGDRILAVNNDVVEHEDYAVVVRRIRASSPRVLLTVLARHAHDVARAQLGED

SCRIB_3, Q14160 = target: SCRIB_3, Q14160
SCRIB_3, Q14160, sequence (Q14160 999-1103): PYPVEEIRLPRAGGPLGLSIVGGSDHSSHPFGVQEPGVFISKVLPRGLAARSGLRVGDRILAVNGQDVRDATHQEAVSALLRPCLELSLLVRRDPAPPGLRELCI

CARD11, Q9BXL7 = target: T5, CARD11, Q9BXL7
T5 sequence (Q9BXL7 662-765, limits assumed, looked up): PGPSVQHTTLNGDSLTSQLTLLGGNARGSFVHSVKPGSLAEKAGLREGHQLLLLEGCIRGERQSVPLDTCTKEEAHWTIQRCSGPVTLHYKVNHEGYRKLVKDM

PDZD2_2, O15018 = target: T6, PDZD2_2, O15018
T6 sequence (O15018 329-429, limits assumed, looked up): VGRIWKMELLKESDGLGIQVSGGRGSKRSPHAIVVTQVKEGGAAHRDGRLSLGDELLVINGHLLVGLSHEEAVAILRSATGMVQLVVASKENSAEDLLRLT

GRIP1_7, Q9Y3R0 = target: T7, GRIP1_7, Q9Y3R0
T7 sequence (Q9Y3R0 999-1096, limits assumed, looked up): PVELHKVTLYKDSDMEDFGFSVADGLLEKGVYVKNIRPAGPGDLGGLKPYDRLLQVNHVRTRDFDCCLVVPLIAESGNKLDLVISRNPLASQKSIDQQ

TX1BP3, O14907 = target: T8, TX1BP3, O14907
T8 sequence (O14907 10-122, limits assumed, looked up): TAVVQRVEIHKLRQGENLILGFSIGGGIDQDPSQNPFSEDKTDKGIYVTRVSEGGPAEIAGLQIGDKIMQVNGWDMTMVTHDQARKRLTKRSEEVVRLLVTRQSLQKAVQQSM

Inadl_6, Q8NI35 = target: Inadl_6, Q8NI35
Inadl_6, Q8NI35, sequence (Q8NI35 1058-1167): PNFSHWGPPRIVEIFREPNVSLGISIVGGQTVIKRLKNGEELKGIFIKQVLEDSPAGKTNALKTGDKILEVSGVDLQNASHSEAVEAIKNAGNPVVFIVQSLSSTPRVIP

GIPC2, Q8TF65 = target: GIPC2, Q8TF65
GIPC2, Q8TF65, sequence (Q8TF65 112-203): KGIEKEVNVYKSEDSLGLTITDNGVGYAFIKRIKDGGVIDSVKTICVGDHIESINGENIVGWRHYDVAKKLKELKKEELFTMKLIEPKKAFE

DLG3_3, Q92796 = target: T9, DLG3_3, Q92796
T9 sequence (Q92796 374-475, limits assumed, looked up): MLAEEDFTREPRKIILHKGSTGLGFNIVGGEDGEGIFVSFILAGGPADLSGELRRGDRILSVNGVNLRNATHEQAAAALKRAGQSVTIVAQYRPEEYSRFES

Inadl_3, Q8NI35 = target: Inadl_3, Q8NI35
Inadl_3, Q8NI35, sequence (Q8NI35 359-469): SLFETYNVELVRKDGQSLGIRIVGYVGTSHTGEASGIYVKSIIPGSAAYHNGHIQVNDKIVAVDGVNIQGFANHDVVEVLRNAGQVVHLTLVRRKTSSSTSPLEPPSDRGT

FRMPD2_3, Q68DX3 = target: FRMPD2_3, Q68DX3
FRMPD2_3, Q68DX3, sequence (Q68DX3 1073-1166): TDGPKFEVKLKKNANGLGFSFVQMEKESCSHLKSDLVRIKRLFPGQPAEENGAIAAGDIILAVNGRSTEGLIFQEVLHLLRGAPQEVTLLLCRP

TJP1_3, Q07157 = target: TJP1_3, Q07157
TJP1_3, Q07157, sequence (Q07157 416-512): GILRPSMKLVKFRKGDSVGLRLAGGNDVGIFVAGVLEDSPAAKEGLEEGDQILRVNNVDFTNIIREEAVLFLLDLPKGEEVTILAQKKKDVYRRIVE

FRMPD2_2, Q68DX3 = target: FRMPD2_2, Q68DX3
FRMPD2_2, Q68DX3, sequence (Q68DX3 944-1038): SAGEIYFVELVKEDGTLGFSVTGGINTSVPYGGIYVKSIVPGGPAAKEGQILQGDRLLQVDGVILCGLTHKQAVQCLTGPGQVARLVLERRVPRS

DLG1_2, Q12959 = target: DLG1_2, Q12959
DLG1_2, Q12959, sequence (Q12959 314-412): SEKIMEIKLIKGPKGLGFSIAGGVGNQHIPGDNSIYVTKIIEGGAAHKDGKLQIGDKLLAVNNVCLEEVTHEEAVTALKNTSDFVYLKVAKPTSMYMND

TJP2_1, Q9UDY2 = target: TJP2_1, Q9UDY2
TJP2_1, Q9UDY2, sequence (Q9UDY2 24-128): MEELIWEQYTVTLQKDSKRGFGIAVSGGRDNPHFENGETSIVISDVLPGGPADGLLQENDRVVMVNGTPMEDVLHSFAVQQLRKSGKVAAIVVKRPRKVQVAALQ

LNX2_3, Q8N448 = target: T10, LNX2_3, Q8N448
T10 sequence (Q8N448 463-564, limits assumed, looked up): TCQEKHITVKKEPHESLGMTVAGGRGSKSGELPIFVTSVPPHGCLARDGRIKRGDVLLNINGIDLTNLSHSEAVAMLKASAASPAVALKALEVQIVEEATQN

RAPGEF6, Q8TEU7 = target: T11, RAPGEF6, Q8TEU7
T11 sequence (Q8TEU7 525-625, limits assumed, looked up): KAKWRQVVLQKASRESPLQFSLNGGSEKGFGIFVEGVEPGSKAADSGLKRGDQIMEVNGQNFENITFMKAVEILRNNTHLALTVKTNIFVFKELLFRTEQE

NHERF3_1, Q5T2W1 = target: T12, NHERF3_1, Q5T2W1
T12 sequence (Q5T2W1 4-100, limits assumed, looked up): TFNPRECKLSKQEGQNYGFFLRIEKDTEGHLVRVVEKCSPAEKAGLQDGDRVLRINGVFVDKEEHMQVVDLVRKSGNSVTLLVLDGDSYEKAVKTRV

GRIP2_5, Q9C0E4, sequence (Q9C0E4 544-642): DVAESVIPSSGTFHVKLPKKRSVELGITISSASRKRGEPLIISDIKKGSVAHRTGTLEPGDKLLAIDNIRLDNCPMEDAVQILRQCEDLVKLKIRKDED

- pKd (GRIP2_5, Q9C0E4): below the threshold
- pKd (DLG3_2, Q92796): 4.35
- pKd (MPP7, Q5T2T1): 3.56
- pKd (LNX2_2, Q8N448): below the threshold
- pKd (LIN7C, Q9NUP9): 4.68
- pKd (LDB3, O75112): below the threshold
- pKd (Inadl_9, Q8NI35): below the threshold
- pKd (NHERF4_1, Q86UT5-2): 4.61
- pKd (SCRIB_3, Q14160): 5.59
- pKd (CARD11, Q9BXL7): below the threshold
- pKd (PDZD2_2, O15018): 3.65
- pKd (GRIP1_7, Q9Y3R0): below the threshold
- pKd (TX1BP3, O14907): 5.11
- pKd (Inadl_6, Q8NI35): 4.89
- pKd (GIPC2, Q8TF65): below the threshold
- pKd (DLG3_3, Q92796): 3.83
- pKd (Inadl_3, Q8NI35): 4
- pKd (FRMPD2_3, Q68DX3): below the threshold
- pKd (TJP1_3, Q07157): below the threshold
- pKd (FRMPD2_2, Q68DX3): 3.77
- pKd (DLG1_2, Q12959): 4.57
- pKd (TJP2_1, Q9UDY2): below the threshold
- pKd (LNX2_3, Q8N448): below the threshold
- pKd (RAPGEF6, Q8TEU7): below the threshold
- pKd (NHERF3_1, Q5T2W1): 6.21
Binder: STLTIFETAL [ABCC4, O15439]
